{"source": "paper PMC3942532", "about": "(2014)", "binders": {"B1": {"name": "mu opioid receptor (protein)", "chain": "MDSSTGPGNTSDCSDPLAQASCSPAPGSWLNLSHVDGNQSDPCGLNRTGLGGNDSLCPQTGSPSMVTAITIMALYSIVCVVGLFGNFLVMYVIVRYTKMKTATNIYIFNLALADALATSTLPFQSVNYLMGTWPFGTILCKIVISIDYYNMFTSIFTLCTMSVDRYIAVCHPVKALDFRTPRNAKIVNVCNWILSSAIGLPVMFMATTKYRQGSIDCTLTFSHPTWYWENLLKICVFIFAFIMPVLIITVCYGLMILRLKSVRMLSGSKEKDRNLRRITRMVLVVVAVFIVCWTPIHIYVIIKALITIPETTFQTVSWHFCIALGYTNSCLNPVLYAFLDENFKRCFREFCIPTSSTIEQQNSTRVRQNTREHPSTANTVDRTNHQLENLEAETAPLP"}}, "target": "dynorphin A-(1-13)-OH 1-13 (Homo sapiens, UniProt P01213)", "assay": "radioligand competition"}
{"binder": "B1", "values": [{"measurement": "Ki", "value": 4, "unit": "nM"}]}
